This note sets out measurements from US6858707B1, “Hypersensitive response elicitor fragments which are active but do not elicit a hypersensitive response” (EDEN Bioscience Corporation, priority 1998, dated 2005).

Several values for one entry are separate records, joined by “and”; a condition that tells them apart may be missing. Equal values may be shown once.

Series [1] concerns tobacco (Nicotiana tabacum v. Xanthi) leaves. In words: Induction of HR in tobacco by hrpN truncated proteins. It counts as in vivo. The following applies: for HR titer: large scale purified protein, concentration down to which HR is elicited in tobacco, — = no HR; for HR elicitation in tobacco (in words): Example 12. Here is the method:
A 1.5 ml aliquot from the 50 ml cultures grown for small scale purification of the truncated proteins was centrifuged at 14,000 rpm for four minutes and re-suspended in an equal volume of 5 mM potassium phosphate buffer, pH 6.8. The cell suspension was sonicated for ca. 30 seconds then diluted 1:2 and 1:10 with phosphate buffer. Both dilutions plus the neat cell lysate were infiltrated into the fourth to ninth leaves of 10-15 leaf tobacco plants by making a hole in single leaf panes and infiltrating the bacterial lysate into the intercellular leaf space using a syringe without a needle. The HR response was recorded 24-48 hr post infiltration. Tobacco (Nicotiana tabacum v. Xanthi) seedlings were grown in an environmental chamber at 20-25° C. with a photoperiod of 12-h light/12-h dark and ca. 40% RH. Cell lysate was used for the initial HR assays (in order to screen the truncated proteins for HR activity) as the small scale urea purification yielded very little protein which was denatured due to the purification process.
The full length positive control protein elicited HR down to only 5-7 μg/ml. […] This false HR was likely due to an affinity of the imidazole used in the purification process to bind to one or several of the background proteins, thereby not completely dialyzing out.

In series [2] the test system is tomato (Lycopersicon spp. cv. Marglobe). As to the kind of experiment: Induction of growth enhancement (GE/PGE), tomato seed soak. Type of series: in vivo. To be noted: for PGE ht>buffer @20 μg/ml: tomato seeds soaked overnight at 20 μg/ml; for PGE ht>buffer @20 μg/ml / PGE ht>buffer @10 μg/ml / PGE ht>buffer @ 40 μg/ml: height vs buffer control; for PGE ht>buffer @20 μg/ml / PGE ht>buffer @10 μg/ml: >10% needed to pass; for PGE ht>buffer @10 μg/ml: tomato seeds soaked overnight at 10 μg/ml. Here is the method: Sixty tomato (Lycopersicon spp. cv. […] The next morning, the sixty seeds were sewn in three pots and 12-15 days later and again 18-20 days later the heights of the 10 tallest tomato plants per pot were measured and compared with the heights of the control plants treated only with phosphate buffer. Analyses were done on the heights to determine if there was a significant difference in the height of the plants treated with the truncated proteins compared with the buffer control, and thereby determine whether the proteins induced growth enhancement.

For series [3], the system named is TMV. As to the kind of experiment: Induction of systemic acquired resistance (SAR), TMV lesions on tobacco. It counts as in vivo, Nicotiana tabacum. To be noted: tobacco sprayed with 20 μg/ml, reduction in TMV lesions vs buffer control. Here is the method:
Three tobacco (Nicotiana tabacum cv. Xanthi) plants with 8-12 leaves (ca. 75 day old plants) were used in the assay. One leaf of the tobacco plants was covered up and the rest of the leaves were sprayed with ca. 50 ml of a 20 μg/ml solution of the truncated proteins diluted with 5 mM potassium phosphate buffer. Five to seven days later two leaves (the unsprayed leaf and the sprayed leaf opposite and just above the unsprayed leaf) were inoculated with 20 μl of a 1.8 μg/ml solution of TMV along with a pinch of diatomaceous earth by rubbing the mixture along the top surface of the leaves. The TMV entered the plants through tiny lesions made by the diatomaceous earth. Ca. 3-4 days post TMV inolucation, the number of TMV lesions was counted on both leaves compared with the number of lesions on the negative control buffer treated leaves. Analyses were done to determine the efficacy of reducing the number of TWV lesions by the protein fragents compared to the buffer control. Percentage of efficacy was calculated as: Reduction in TMV lesions (% efficacy)=100×(1−mean # of lesions on treated leaves/mean # of lesions on buffer control leaves).

Regarding `c1c[nH]cn1` [Imidazole], in series [1] (imidazole at ca. 60 mM), the “false HR response” value was “did elicit a false HR response”.
Turning to “Fragment 20: amino acids 137-180 of SEQ ID NO: 23, smallest HR domain (STSQNDDSTSGTDSTSDSSDPMQQLLKMFSEIMQSLFGDGQDGT; listed as Erwinia amylovora)”, the “PGE ht>buffer @20 μg/ml” value in series [2] was found to be 9%. Moreover, the “Efficacy of TMV control” value in series [3] (listed as 20) is 64% and 58%. For the same molecule, in series [1], the HR titer stood at 16 µg/mL.

B1: Fragment 17: amino acids 105-168 of SEQ ID NO: 23, internal fragment (protein, listed as Erwinia amylovora)
chain: MLGGSLNTLGSKGGNNTTSTTNSPLDQALGINSTSQNDDSTSGTDSTSDSSDPMQQLLKMFSEI
B1: in series [2], the “PGE ht>buffer @10 μg/ml” value is listed as 19% and the “PGE ht>buffer @20 μg/ml” value is 16%. Also, in series [3], the “Efficacy of TMV control” value is 89%. Also, the “HR elicitation in tobacco (in words)” value in series [1] is “lost its HR activity”.

B2: Fragment 1: full length Erwinia amylovora hypersensitive response elicitor, amino acids 1-403 of SEQ ID NO: 23, pET28(b) clone, positive control (protein, listed as Erwinia amylovora)
chain: MSLNTSGLGASTMQISIGGAGGNNGLLGTSRQNAGLGGNSALGLGGGNQNDTVNQLAGLLTGMMMMMSMMGGGGLMGGGLGGGLGNGLGGSGGLGEGLSNALNDMLGGSLNTLGSKGGNNTTSTTNSPLDQALGINSTSQNDDSTSGTDSTSDSSDPMQQLLKMFSEIMQSLFGDGQDGTQGSSSGGKQPTEGEQNAYKKGVTDALSGLMGNGLSQLLGNGGLGGGQGGNAGTGLDGSSLGGKGLQNLSGPVDYQQLGNAVGTGIGMKAGIQALNDIGTHRHSSTRSFVNKGDRAMAKEIGQFMDQYPEVFGKPQYQKGPGQEVKTDDKSWAKALSKPDDDGMTPASMEQFNKAKGMIKRPMAGDTGNGNLQARGAGGSSLGIDAMMAGDAINNMALGKLGAA
Regarding B2, in series [2], the “PGE ht>buffer @10 μg/ml” value was found to be 12% and the “PGE ht>buffer @20 μg/ml” value was 11%. For the same molecule, the “Efficacy of TMV control” value in series [3] (listed as 1 (+control)) was 84% and 72%. The HR titer in series [1] is 5 to 7 µg/mL.

B3: Fragment 7: amino acids 343-403 of SEQ ID NO: 23, smallest C-terminal protein (protein, listed as Erwinia amylovora)
chain: MTPASMEQFNKAKGMIKRPMAGDTGNGNLQARGAGGSSLGIDAMMAGDAINNMALGKLGAA
Take B3: in series [2], the “PGE ht>buffer @10 μg/ml” value is listed as 7% and the “PGE ht>buffer @20 μg/ml” value came to 7%.

B4: Fragment 13: amino acids 76-209 of SEQ ID NO: 23, internal fragment (protein, listed as Erwinia amylovora)
chain: MGGGLGGGLGNGLGGSGGLGEGLSNALNDMLGGSLNTLGSKGGNNTTSTTNSPLDQALGINSTSQNDDSTSGTDSTSDSSDPMQQLLKMFSEIMQSLFGDGQDGTQGSSSGGKQPTEGEQNAYKKGVTDALSGL
For B4, the “PGE ht>buffer @ μg/ml” value in series [2] (concentration figure missing in the cell) is given as 18% @ μg/ml. Moreover, in series [2], the “PGE ht>buffer @10 μg/ml” value is given as 7% and the “PGE ht>buffer @20 μg/ml” value was 4%. Also, in series [2] (tomato, 60 μg/ml), the “enhanced growth at 60 μg/ml” value is on record as 18%. The “Efficacy of TMV control” value in series [3] (listed as 13) was 44% and 84%. This molecule registered an HR titer in series [1] of 5 µg/mL.

B5: Fragment 6: amino acids 267-403 of SEQ ID NO: 23, C-terminal fragment (protein, listed as Erwinia amylovora)
chain: MKAGIQALNDIGTHRHSSTRSFVNKGDRAMAKEIGQFMDQYPEVFGKPQYQKGPGQEVKTDDKSWAKALSKPDDDGMTPASMEQFNKAKGMIKRPMAGDTGNGNLQARGAGGSSLGIDAMMAGDAINNMALGKLGAA
Take B5: in series [2], the “PGE ht>buffer @ 40 μg/ml” value turned out to be 23% @ 40 μg/ml, the “PGE ht>buffer @10 μg/ml” value is 21% and the “PGE ht>buffer @20 μg/ml” value is recorded as 21%. Moreover, in series [3] (listed as 6), the “Efficacy of TMV control” value was 70% and 72%.

B6: Fragment 14: amino acids 76-168 of SEQ ID NO: 23, internal fragment (protein, listed as Erwinia amylovora)
chain: MGGGLGGGLGNGLGGSGGLGEGLSNALNDMLGGSLNTLGSKGGNNTTSTTNSPLDQALGINSTSQNDDSTSGTDSTSDSSDPMQQLLKMFSEI
Take B6: in series [2], the “PGE ht>buffer @10 μg/ml” value came to 18% and the “PGE ht>buffer @20 μg/ml” value is given as 20%. The “Efficacy of TMV control” value in series [3] (listed as 14) is 83% and 87%. Also, the “HR elicitation in tobacco (in words)” value in series [1] is listed as “lost its HR activity”.

B7: Fragment 9: amino acids 1-104 of SEQ ID NO: 23, N-terminal fragment (protein, listed as Erwinia amylovora)
chain: MSLNTSGLGASTMQISIGGAGGNNGLLGTSRQNAGLGGNSALGLGGGNQNDTVNQLAGLLTGMMMMMSMMGGGGLMGGGLGGGLGNGLGGSGGLGEGLSNALND
Take B7: in series [2], the “PGE ht>buffer @10 μg/ml” value was determined as 4% and the “PGE ht>buffer @20 μg/ml” value is given as 8%. The “Efficacy of TMV control” value in series [3] stood at 82%. In series [1], this molecule had an HR titer of 3 µg/mL.

B8: Fragment 10: amino acids 1-168 of SEQ ID NO: 23, N-terminal fragment (protein, listed as Erwinia amylovora)
chain: MSLNTSGLGASTMQISIGGAGGNNGLLGTSRQNAGLGGNSALGLGGGNQNDTVNQLAGLLTGMMMMMSMMGGGGLMGGGLGGGLGNGLGGSGGLGEGLSNALNDMLGGSLNTLGSKGGNNTTSTTNSPLDQALGINSTSQNDDSTSGTDSTSDSSDPMQQLLKMFSEI
On to B8, for which, in series [2], the “PGE ht>buffer @10 μg/ml” value is 13% and the “PGE ht>buffer @20 μg/ml” value is listed as 5%. Also, the “Efficacy of TMV control” value in series [3] was 69%. Further, the HR titer in series [1] is 1 µg/mL.

B9: Fragment 5: amino acids 210-403 of SEQ ID NO: 23, C-terminal fragment (protein, listed as Erwinia amylovora)
chain: MGNGLSQLLGNGGLGGGQGGNAGTGLDGSSLGGKGLQNLSGPVDYQQLGNAVGTGIGMKAGIQALNDIGTHRHSSTRSFVNKGDRAMAKEIGQFMDQYPEVFGKPQYQKGPGQEVKTDDKSWAKALSKPDDDGMTPASMEQFNKAKGMIKRPMAGDTGNGNLQARGAGGSSLGIDAMMAGDAINNMALGKLGAA
Turning to B9, in series [2], the “PGE ht>buffer @ 40 μg/ml” value turned out to be 16% @ 40 μg/ml, the “PGE ht>buffer @10 μg/ml” value was 13% and the “PGE ht>buffer @20 μg/ml” value worked out at 14%. Further, in series [3] (listed as 5), the “Efficacy of TMV control” value is 77% and 78%. In addition, the “HR elicitation in tobacco (in words)” value in series [1] is “did not elicit HR at a detectable level”.

B10: Fragment 4: amino acids 169-403 of SEQ ID NO: 23, C-terminal fragment (protein, listed as Erwinia amylovora)
chain: MQSLFGDGQDGTQGSSSGGKQPTEGEQNAYKKGVTDALSGLMGNGLSQLLGNGGLGGGQGGNAGTGLDGSSLGGKGLQNLSGPVDYQQLGNAVGTGIGMKAGIQALNDIGTHRHSSTRSFVNKGDRAMAKEIGQFMDQYPEVFGKPQYQKGPGQEVKTDDKSWAKALSKPDDDGMTPASMEQFNKAKGMIKRPMAGDTGNGNLQARGAGGSSLGIDAMMAGDAINNMALGKLGAA
As for B10, in series [2], the “PGE ht>buffer @10 μg/ml” value came out at 9% and the “PGE ht>buffer @20 μg/ml” value stood at 12%. In addition, the “Efficacy of TMV control” value in series [3] (listed as 4) was 64% and 79%. The “HR elicitation in tobacco (in words)” value in series [1] is listed as “did not elicit HR”.
